Laboratory results as given in PMC10165274 (The Journal of Biological Chemistry, 2023).

Legend:
Assay in all cases: ITC; peptide (FEN1 800 uM, pol δ p66 550 uM, RNaseH2B 750 uM) with 33 to 38 uM individual PCNA (not trimeric rings); 25 °C
Details in all cases: both partners purified
[1] = molecular target: T1, Proliferating cell nuclear antigen C148S variant (human, UniProt P12004 1-261, C148S)
T1 construct: PCNA, human, patient-derived variant p.Cys148Ser; untagged, made by site-directed mutagenesis of PCNA-WT in pET3c; Disease-associated natural allele (PARD); Homotrimeric ring; also called PCNA-C148S; C148S-PCNA; source: E. coli BLR-DE3, purified (S and Q HiTrap columns, Sephacryl-200 gel filtration)

[2] = molecular target: T2, Proliferating cell nuclear antigen, wild type (human, UniProt P12004 1-261)
T2 construct: PCNA, human; untagged, expressed from the pET3c vector; Homotrimeric ring; also called PCNA-WT; PCNA; source: E. coli BLR-DE3, purified (S and Q HiTrap columns, Sephacryl-200 gel filtration)

[3] = molecular target: T3, Proliferating cell nuclear antigen S228I variant (human, UniProt P12004 1-261, S228I)
T3 construct: PCNA, human, patient-derived variant p.Ser228Ile; expressed from the pET3c vector; Disease-associated natural allele (PARD); also called PCNA-S228I; source: E. coli BLR-DE3, purified (S and Q HiTrap columns, Sephacryl-200 gel filtration)
T3 sequence (P12004 whole entry S228I): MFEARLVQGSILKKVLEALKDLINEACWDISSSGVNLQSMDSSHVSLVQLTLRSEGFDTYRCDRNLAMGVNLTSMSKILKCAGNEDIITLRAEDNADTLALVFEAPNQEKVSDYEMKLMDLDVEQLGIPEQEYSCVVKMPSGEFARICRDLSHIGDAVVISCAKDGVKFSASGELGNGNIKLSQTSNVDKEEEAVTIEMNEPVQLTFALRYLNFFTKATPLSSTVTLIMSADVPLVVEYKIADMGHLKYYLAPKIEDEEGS

T1 sequence (P12004 whole entry C148S): as the sequence (P12004 whole entry S228I) above, with C148S, I228S counted along it
T2 sequence (P12004 whole entry): as the sequence (P12004 whole entry S228I) above, with I228S counted along it

Binder | Kd [1] [µM] | Kd [2] [µM] | Kd [3] [µM]
STQGRLDDFFKVTGSL (PIP-box peptide of Flap endonuclease 1 (FEN1); free C-terminus (-OH); source: synthetic peptide (21st Century Biochemicals)) [FEN1 PIP-box peptide] | 11 ± 2 | 11 ± 2 | –
DKSGMKSIDTFFGVKNKKKIGKV (PIP-box peptide of RNaseH2B; free C-terminus (-OH); printed with a blank after SID; source: synthetic peptide (21st Century Biochemicals)) [RNaseH2B PIP-box peptide] | 7.8 ± 0.01 | 9.7 ± 0.3 | –
KANRQVSITGFFQRK (PIP-box peptide of the p66 subunit of DNA polymerase delta; also called pol δ p66; pol δ; source: synthetic peptide (21st Century Biochemicals)) [DNA polymerase delta p66 PIP-box peptide] | 2.8 ± 0.33 | 3 ± 0.16 | 4 ± 0.14
